Here are results for 28 sequences from the Immune Epitope Database (IEDB).

Holding throughout (assay): IEDB peptide-MHC binding, purified MHC/competitive/radioactivity; ≥ and ≤ were set here for values at or beyond the usual limits of such assays
Experiment [1] has as its target HLA-A*02:01.
Experiment [2] deals with HLA-A*02:02.
Experiment [3] deals with HLA-A*02:03.
The target of experiment [4] is HLA-A*02:06.
The target in experiment [5] is HLA-A*68:02.
Setting [6] is: source organism: Vaccinia virus WR.
The mark [7] stands for this setting: source organism: Hepacivirus hominis.
[8] abbreviates: source organism: Influenza A virus.

Turning to FTNSQIFNII, the IC50 in experiment [1] (setting [6]) stood at 1570 nM; in experiment [2] (setting [6]), 143 nM; in experiment [3] (setting [6]), 457 nM; in experiment [4] (setting [6]), 1200 nM; in experiment [5] (setting [6]), 16 nM.
Turning to TVGMSIVCIV, the IC50 in experiment [1] (setting [6]) worked out at 526 nM; in experiment [2] (setting [6]), 528 nM; in experiment [3] (setting [6]) it was 468 nM; in experiment [4] (setting [6]) it was 200 nM; in experiment [5] (setting [6]), 220 nM.
In the case of IAVSVYGAI, the IC50 in experiment [1] (setting [6]) amounted to 884 nM; in experiment [2] (setting [6]) it was 1480 nM; in experiment [3] (setting [6]), 124 nM; in experiment [4] (setting [6]) it was 1100 nM; in experiment [5] (setting [6]), 7.8 nM.
For ILMTHFFSI, the IC50 in experiment [1] (setting [7]) stood at 1.3 nM; in experiment [2] (setting [7]), 6.7 nM; in experiment [3] (setting [7]), 1 nM; in experiment [4] (setting [7]) it was 4.7 nM; in experiment [5] (setting [7]) it was 185 nM.
Take CTINVNSLA: the IC50 in experiment [1] (setting [6]) worked out at 1040 nM; in experiment [2] (setting [6]), 1040 nM; in experiment [3] (setting [6]), 1610 nM; in experiment [4] (setting [6]) it was 248 nM; in experiment [5] (setting [6]) it was 13 nM.
For FVDEFYAYL, the IC50 worked out at 0.22 nM in experiment [1] (source organism: SARS-CoV1); 0.089 nM in experiment [2] (source organism: SARS-CoV1); 2.6 nM in experiment [3] (source organism: SARS-CoV1); 0.36 nM in experiment [4] (source organism: SARS-CoV1); 38 nM in experiment [5] (source organism: SARS-CoV1).
In the case of FLLVTLAIL, the IC50 in experiment [2] (source organism: SARS-CoV1) was determined as 0.64 nM; in experiment [3] (source organism: SARS-CoV1) it was 0.97 nM; in experiment [4] (source organism: SARS-CoV1), 0.48 nM; in experiment [5] (source organism: SARS-CoV1), 1900 nM.
As to MTSTRTIILV, the IC50 in experiment [2] (setting [6]) worked out at 1980 nM; in experiment [3] (setting [6]), 920 nM; in experiment [4] (setting [6]), 217 nM; in experiment [5] (setting [6]), 173 nM.
For QMWKCLIRL, the IC50 stood at 175 nM in experiment [2] (setting [7]), 317 nM in experiment [3] (setting [7]), 218 nM in experiment [4] (setting [7]) and 3230 nM in experiment [5] (setting [7]).
As to KTIAVSVYGA, the IC50 was determined as 366 nM in experiment [2] (setting [6]), 224 nM in experiment [3] (setting [6]), 427 nM in experiment [4] (setting [6]) and 235 nM in experiment [5] (setting [6]).
Regarding FLTSLLILV, the IC50 was 2.2 nM in experiment [2] (source organism: SARS-CoV1), 12 nM in experiment [3] (source organism: SARS-CoV1), 3.3 nM in experiment [4] (source organism: SARS-CoV1) and 260 nM in experiment [5] (source organism: SARS-CoV1).
Take KLRSSPPIPM: the IC50 came out at 58 nM in experiment [2] (setting [6]), 134 nM in experiment [3] (setting [6]), 2210 nM in experiment [4] (setting [6]) and 4280 nM in experiment [5] (setting [6]).
Consider MLLRSAIGQV, for which the IC50 was determined as 1390 nM in experiment [2] (setting [8]), 7 nM in experiment [3] (setting [8]), 242 nM in experiment [4] (setting [8]) and 1710 nM in experiment [5] (setting [8]).
In the case of FTYASALWEI, the IC50 is 1.6 nM in experiment [2] (source organism: SARS-CoV1), 6 nM in experiment [3] (source organism: SARS-CoV1), 2.5 nM in experiment [4] (source organism: SARS-CoV1) and 1.7 nM in experiment [5] (source organism: SARS-CoV1).
Regarding RIEDMFLTSV, the IC50 in experiment [2] (setting [6]) came out at 548 nM; in experiment [3] (setting [6]) it was 71 nM; in experiment [4] (setting [6]), 168 nM; in experiment [5] (setting [6]) it was 1430 nM.
Regarding TLNEDLLEI, the IC50 in experiment [2] (source organism: SARS-CoV1) is 1.4 nM; in experiment [3] (source organism: SARS-CoV1), 2.2 nM; in experiment [4] (source organism: SARS-CoV1) it was 56 nM; in experiment [5] (source organism: SARS-CoV1), 1460 nM.
Turning to FISGIQYLA, the half-maximal inhibitory concentration (IC50) in experiment [2] (setting [7]) came out at 8.6 nM; in experiment [3] (setting [7]), 832 nM; in experiment [4] (setting [7]), 1340 nM; in experiment [5] (setting [7]), 12 nM.
As to TLLCVLAAL, the IC50 in experiment [2] (source organism: SARS-CoV1) amounted to 8.1 nM; in experiment [3] (source organism: SARS-CoV1), 11 nM; in experiment [4] (source organism: SARS-CoV1), 8 nM; in experiment [5] (source organism: SARS-CoV1), 431 nM.
With VLAWLYAAV, the IC50 is 0.097 nM in experiment [2] (source organism: SARS-CoV1), 0.31 nM in experiment [3] (source organism: SARS-CoV1), 8.8 nM in experiment [4] (source organism: SARS-CoV1) and 37 nM in experiment [5] (source organism: SARS-CoV1).
For SMWALVISV, the IC50 turned out to be 6.1 nM in experiment [2] (source organism: SARS-CoV1), 4.4 nM in experiment [3] (source organism: SARS-CoV1), 0.79 nM in experiment [4] (source organism: SARS-CoV1) and 252 nM in experiment [5] (source organism: SARS-CoV1).
As to FLNRFTTTL, the IC50 in experiment [2] (source organism: SARS-CoV1) is 0.66 nM; in experiment [3] (source organism: SARS-CoV1), 1 nM; in experiment [4] (source organism: SARS-CoV1), 58 nM; in experiment [5] (source organism: SARS-CoV1) it was 286 nM.
For the sequence TLMNVITLV, the IC50 in experiment [2] (source organism: SARS-CoV1) stood at 0.34 nM; in experiment [3] (source organism: SARS-CoV1) it was 0.25 nM; in experiment [4] (source organism: SARS-CoV1), 0.7 nM; in experiment [5] (source organism: SARS-CoV1), 13 nM.
As for YLNTPGLPV, the IC50 turned out to be 9.3 nM in experiment [2] (setting [7]), 12 nM in experiment [3] (setting [7]), 847 nM in experiment [4] (setting [7]) and 196 nM in experiment [5] (setting [7]).
Turning to IIGHIGHHYI, the IC50 was determined as 400 nM in experiment [2] (setting [6]), 186 nM in experiment [3] (setting [6]), 1350 nM in experiment [4] (setting [6]) and 222 nM in experiment [5] (setting [6]).
For FLITGVFDI, the IC50 worked out at 0.69 nM in experiment [2] (source organism: SARS-CoV1), 0.76 nM in experiment [3] (source organism: SARS-CoV1), 1.5 nM in experiment [4] (source organism: SARS-CoV1) and 62 nM in experiment [5] (source organism: SARS-CoV1).
As for SLFIESSICL, the IC50 in experiment [2] (setting [6]) came out at 99 nM; in experiment [3] (setting [6]), 293 nM; in experiment [4] (setting [6]), 982 nM; in experiment [5] (setting [6]) it was 2160 nM.
For YTRPEIDVL, the IC50 worked out at 115 nM in experiment [2] (setting [6]), 74 nM in experiment [3] (setting [6]), 154 nM in experiment [4] (setting [6]) and 528 nM in experiment [5] (setting [6]).
In the case of RLWHYPCTV, the IC50 stood at 165 nM in experiment [2] (setting [7]), 17 nM in experiment [3] (setting [7]), 131 nM in experiment [4] (setting [7]) and 4310 nM in experiment [5] (setting [7]).

Usually IC50 stands for the concentration that inhibits the measured activity by half.
